Results reported in publication PMC10418624, “Expression and Characterization of Two α-L-Arabinofuranosidases from Talaromyces amestolkiae: Role of These Enzymes in Biomass Valorization” (International Journal of Molecular Sciences, 2023).

What was measured:
[1] = tested on: T1, O=[N+]([O-])c1ccc(O[C@@H]2O[C@@H](CO)[C@H](O)[C@H]2O)cc1; test: purified protein; format: biochemical, Talaromyces amestolkiae; conditions: standard reaction: 50 mM sodium acetate pH 5, 50 °C, 0.1% BSA, substrate 0.0625-16 mM
T1 construct: mature form without 18-residue signal peptide (54 bp), gene 1223 bp with one intron, 368 residues, 39 kDa, N-terminal CBM1, Ser/Thr-rich linker and GH62 domain; secreted from Pichia pastoris GS115 (pPIC9), N-glycosylated, about 50 kDa on SDS-PAGE; forward primer encodes QASLYGQ after the EcoRI site, reverse primer encodes C-terminal LLTLSK

[2] = tested on: T2, O=[N+]([O-])c1ccc(O[C@@H]2O[C@@H](CO)[C@H](O)[C@H]2O)cc1; test: purified protein; format: biochemical, Talaromyces amestolkiae; conditions: standard reaction: 50 mM sodium acetate pH 5, 50 °C, 0.1% BSA, substrate 0.0625-16 mM
T2 construct: secreted from Pichia pastoris GS115 (pPIC9), N-glycosylated, about 37 kDa on SDS-PAGE; forward primer encodes LPTDETA after the EcoRI site, reverse primer encodes C-terminal PGLLTHK

ARA-1 (Talaromyces amestolkiae), sequence (chain, as listed by the source): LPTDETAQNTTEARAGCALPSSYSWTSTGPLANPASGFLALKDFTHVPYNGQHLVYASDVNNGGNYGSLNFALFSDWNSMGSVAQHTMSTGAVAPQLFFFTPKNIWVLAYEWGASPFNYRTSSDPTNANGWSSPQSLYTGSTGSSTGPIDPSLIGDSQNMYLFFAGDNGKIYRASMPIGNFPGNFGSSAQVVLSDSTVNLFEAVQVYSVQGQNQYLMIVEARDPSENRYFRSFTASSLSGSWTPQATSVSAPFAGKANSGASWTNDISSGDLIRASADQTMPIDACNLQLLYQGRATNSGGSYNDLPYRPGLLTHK
ARA-2 (Talaromyces amestolkiae), sequence (chain, as listed by the source): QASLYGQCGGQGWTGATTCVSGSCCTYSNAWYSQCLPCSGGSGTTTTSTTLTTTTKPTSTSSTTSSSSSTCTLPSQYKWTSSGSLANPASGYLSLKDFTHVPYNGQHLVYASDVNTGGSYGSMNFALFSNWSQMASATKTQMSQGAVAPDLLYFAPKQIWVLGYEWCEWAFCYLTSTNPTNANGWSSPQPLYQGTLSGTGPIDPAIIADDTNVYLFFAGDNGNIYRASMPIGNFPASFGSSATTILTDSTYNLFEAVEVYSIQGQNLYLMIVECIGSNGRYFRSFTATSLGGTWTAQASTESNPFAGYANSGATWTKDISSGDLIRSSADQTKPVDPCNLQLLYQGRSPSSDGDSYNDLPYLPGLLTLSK

| Substance | Km [1] | kcat [1] | kcat/Km [1] | Km [2] | kcat [2] | kcat/Km [2] |
| --- | --- | --- | --- | --- | --- | --- |
| ARA-2 (Talaromyces amestolkiae) | 1.48 ± 0.08 mM | 0.41 ± 0.01 s⁻¹ | 280 ± 10 M⁻¹ s⁻¹ |  |  |  |
| ARA-1 (Talaromyces amestolkiae) |  |  |  | 8.97 ± 0.06 mM | 0.05 ± 0.001 s⁻¹ | 5 ± 0.4 M⁻¹ s⁻¹ |
